Laboratory results reported in patent US20230287120A1 (ALLOGENE THERAPEUTICS, published 2023).
Changes are numbered by the printed parent chain.

What was measured:
[1] = target: T1, Flag tagged recombinant DLL3 (Adipogen) (Homo sapiens (Human), UniProt Q9NYJ7 27-492); assay: flow cytometry, primary T cells with the CAR, 1 ug/ml Flag tagged recombinant DLL3, PE anti-Flag
T1 construct: Bought reagent; also called Flag-DLL3
T1 sequence: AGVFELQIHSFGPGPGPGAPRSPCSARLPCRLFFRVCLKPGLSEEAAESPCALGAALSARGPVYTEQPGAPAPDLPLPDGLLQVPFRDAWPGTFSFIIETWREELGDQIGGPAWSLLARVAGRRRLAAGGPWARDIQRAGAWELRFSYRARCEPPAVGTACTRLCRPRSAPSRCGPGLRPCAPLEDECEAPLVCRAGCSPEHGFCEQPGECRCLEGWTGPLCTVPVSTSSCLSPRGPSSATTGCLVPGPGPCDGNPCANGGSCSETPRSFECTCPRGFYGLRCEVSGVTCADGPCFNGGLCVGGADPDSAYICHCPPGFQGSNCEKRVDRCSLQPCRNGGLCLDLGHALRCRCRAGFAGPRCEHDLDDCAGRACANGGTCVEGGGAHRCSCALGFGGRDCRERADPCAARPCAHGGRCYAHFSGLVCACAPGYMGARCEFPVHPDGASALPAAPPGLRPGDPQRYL
Method: (§1) To determine the percentage of T cells that were successfully transduced with DLL3 CAR, T cells were first incubated with 1 ug/ml Flag tagged recombinant DLL3 (Adipogen) in PBS+1% BSA for 20 minutes at 4 C.

[2] = target: T1, Flag tagged recombinant DLL3 (Adipogen); assay: flow cytometry, percent of T cells that recognise recombinant DLL3, Donor 419
Method: as §1

[3] = target: T1, Flag tagged recombinant DLL3 (Adipogen); assay: flow cytometry, percent of T cells that recognise recombinant DLL3, Donor 116
Method: as §1

[4] = target: T2, full length human DLL3 with N-terminal HA tag, expressed on CHO cells (human, UniProt Q9NYJ7 27-618); assay: flow cytometry on CHO cells with full length and truncated human DLL3; column Binds to DLL3 Domain
T2 construct: also called Human DLL3 complete ECD
T2 sequence: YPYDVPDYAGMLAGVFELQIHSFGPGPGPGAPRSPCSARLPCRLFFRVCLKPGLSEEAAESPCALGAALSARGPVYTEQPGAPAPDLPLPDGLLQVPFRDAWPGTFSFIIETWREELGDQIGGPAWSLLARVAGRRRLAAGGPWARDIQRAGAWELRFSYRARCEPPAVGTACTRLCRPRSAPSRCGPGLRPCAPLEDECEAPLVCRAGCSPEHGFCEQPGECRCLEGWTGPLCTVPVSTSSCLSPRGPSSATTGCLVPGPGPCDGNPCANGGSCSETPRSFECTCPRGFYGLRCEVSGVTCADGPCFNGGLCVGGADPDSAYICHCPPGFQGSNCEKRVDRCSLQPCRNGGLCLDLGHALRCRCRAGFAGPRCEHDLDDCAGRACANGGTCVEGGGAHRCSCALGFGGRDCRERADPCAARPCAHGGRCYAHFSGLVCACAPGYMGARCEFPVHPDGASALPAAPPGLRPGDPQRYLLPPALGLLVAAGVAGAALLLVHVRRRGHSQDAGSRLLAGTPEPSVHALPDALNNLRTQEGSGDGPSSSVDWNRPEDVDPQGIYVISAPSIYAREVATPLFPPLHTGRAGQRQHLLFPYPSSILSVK
Method: The samples were analyzed by flow cytometry. […] Signals from the PE channel are shown on the x-axis and counts are shown on the y-axis.

B1: 2G1 (other)
CAR: QLQLQESGPGLVKPSETLSLTCTVSGGSISSSSYYWGWIRQPPGKGLEWIGSIYYSGNIYHNPSLKSRVSISVDTSKNQFSLRLSSVTAADTAVYYCAREIIVGATHFDYWGQGTLVTVSSGGGGSGGGGSGGGGSGGGGSAIQMTQSPSSLSASVGDRVTITCRASQGIRNDLGWYQQKPGKAPELLIYAASSLQSGVPSRFSGSGSGTDFTLTISSLQPEDFATYYCLQDYNYPLTFGPGTKVDIKTTTPAPRPPTPAPTIASQPLSLRPEACRPAAGGAVHTRGLDFACDIYIWAPLAGTCGVLLLSLVITKRGRKKLLYIFKQPFMRPVQTTQEEDGCSCRFPEEEEGGCELRVKFSRSADAPAYQQGQNQLYNELNLGRREEYDVLDKRRGRDPEMGGKPRRKNPQEGLYNELQKDKMAEAYSEIGMKGERRRGKGHDGLYQGLSTATKDTYDALHMQALPPR
notes: also called anti-DLL3 CAR with 2G1 scFv, on primary T cells
Rec-DLL3 gate, percent of live CD3+ cells [1]: 69.1%
Transduction efficiency [2]: 49.1%
Transduction efficiency [3]: 66.9%

B2: 3F2 (other)
CAR: QVQLQESGPGLVKPSGTLSLTCAVSGGSISSNNWWSWVRQPPGKGLEWIGDIHHSGSTNYKPSLKSRVTISVDKSKNQFSLNLISVTAADTAVYYCAREAGGYFDYWGQGILVTVSSGGGGSGGGGSGGGGSGGGGSDIQMTQSPSTLSASVGDRVTITCRASQSISSWLAWYQQKPGKAPKLLISKASSLESGVPSRFSGSGSGPEFTLTISSLQPADFATYYCQQYNSYSTFGQGTKLEIKTTTPAPRPPTPAPTIASQPLSLRPEACRPAAGGAVHTRGLDFACDIYIWAPLAGTCGVLLLSLVITKRGRKKLLYIFKQPFMRPVQTTQEEDGCSCRFPEEEEGGCELRVKFSRSADAPAYQQGQNQLYNELNLGRREEYDVLDKRRGRDPEMGGKPRRKNPQEGLYNELQKDKMAEAYSEIGMKGERRRGKGHDGLYQGLSTATKDTYDALHMQALPPR
notes: also called anti-DLL3 CAR with 3F2 scFv, on primary T cells
Rec-DLL3 gate, percent of live CD3+ cells [1]: 58%
Transduction efficiency [2]: 12.2%
Transduction efficiency [3]: 16.3%

B3: 17A2 (other)
CAR: QVQLQESGPGLVKPSGTLSLTCVVFGDSISSSNWWSWVRQPPGKGLEWIGEVFHSGSTNYNPSLKSRVTISVDKSKNQFSLKLSSVTAADTAVYYCARAAVAGALDYWGQGTLVTVSSGGGGSGGGGSGGGGSGGGGSDIVMTQSPDSLAVSLGERATINCKSSQSVLYSSNNKNYLAWYQQKPGQPPNLLVYWASTRESGVPDRFSGAGSGTDFTLTISSLQAEDVAVYYCQQYYGTSWTFGQGTKVEIKTTTPAPRPPTPAPTIASQPLSLRPEACRPAAGGAVHTRGLDFACDIYIWAPLAGTCGVLLLSLVITKRGRKKLLYIFKQPFMRPVQTTQEEDGCSCRFPEEEEGGCELRVKFSRSADAPAYQQGQNQLYNELNLGRREEYDVLDKRRGRDPEMGGKPRRKNPQEGLYNELQKDKMAEAYSEIGMKGERRRGKGHDGLYQGLSTATKDTYDALHMQALPPR
notes: also called anti-DLL3 CAR with 17A2 scFv, on primary T cells
Rec-DLL3 gate, percent of live CD3+ cells [1]: 59.1%
Transduction efficiency [2]: 43.3%
Transduction efficiency [3]: 68.6%

B4: 4F9 (other)
CAR: QVQLQQWGAGLLKPSETLSLTCAVYGGSFSGYYWTWIRQPPGKGLEWIGEITHSGSTNYNPSLKSRVSISVDTSKNQFSLKLSSVTAADTAVYYCARGEYGSGSRFDYWGQGTLVTVSSGGGGSGGGGSGGGGSGGGGSAIQMTQSPSSLSASVGDRVAITCRASQGIRDDLGWYQQKPGKAPKLLIYAASSLQSGVPSRFSGSGSDTDFTLTISSLQPEDFATYYCLQDYDYPLTFGGGTKVEIKTTTPAPRPPTPAPTIASQPLSLRPEACRPAAGGAVHTRGLDFACDIYIWAPLAGTCGVLLLSLVITKRGRKKLLYIFKQPFMRPVQTTQEEDGCSCRFPEEEEGGCELRVKFSRSADAPAYQQGQNQLYNELNLGRREEYDVLDKRRGRDPEMGGKPRRKNPQEGLYNELQKDKMAEAYSEIGMKGERRRGKGHDGLYQGLSTATKDTYDALHMQALPPR
notes: also called anti-DLL3 CAR with 4F9 scFv, on primary T cells
Transduction efficiency [2]: 49.4%
Transduction efficiency [3]: 67.5%

B5: 3E4 (other)
CAR: B4 CAR with T35S, T52I, T57S, A96S, G205R
notes: also called anti-DLL3 CAR with 3E4 scFv, on primary T cells
Transduction efficiency [2]: 46.4%
Transduction efficiency [3]: 58.3%

B6: 4G9 (other)
CAR: B4 CAR with T35S, I160L
notes: also called anti-DLL3 CAR with 4G9 scFv, on primary T cells
Transduction efficiency [2]: 35.2%
Transduction efficiency [3]: 48.9%

B7: 6H1 (other)
CAR: QITLRESGPTLVKPTQTLTLTCTFSGFSLSTSGLGVGWIRQPPGEALEWLALIYWNDDKRYSPSLKSRLSITKDTSKNQVVLIMTNMDPVDTATYYCVHRRIAAPGSVYWGQGTLVTVSSGGGGSGGGGSGGGGSGGGGSDIQMTQSPSSVSASVGDRVTITCRASQGISSWLAWYQQKPGKAPKLLISAASSLQSGVPSRFSGSGSGTDFTLTISSLQPEDFATYYCHQANSFPFTFGQGTKLEIKTTTPAPRPPTPAPTIASQPLSLRPEACRPAAGGAVHTRGLDFACDIYIWAPLAGTCGVLLLSLVITKRGRKKLLYIFKQPFMRPVQTTQEEDGCSCRFPEEEEGGCELRVKFSRSADAPAYQQGQNQLYNELNLGRREEYDVLDKRRGRDPEMGGKPRRKNPQEGLYNELQKDKMAEAYSEIGMKGERRRGKGHDGLYQGLSTATKDTYDALHMQALPPR
notes: also called anti-DLL3 CAR with 6H1 scFv, on primary T cells
Transduction efficiency [2]: 2.7%
Transduction efficiency [3]: 5.81%

B8: 11H7 (other)
CAR: QVQLQQWGAGLLKPSETLSLTCAVYGGSFSAYYWNWIRQPPGKGLEWIGEINHSGSTNYNPSLKSRVTISVDTSKNQFSLNLTSLTAADTAVYYCARGLDSSGWYPFDYWGQGTLVTVSSGGGGSGGGGSGGGGSGGGGSDIQMTQSPSSVSASVGDRVTITCRASQGISSWLAWYQQKPGKAPKLLIYAASSLQSGVPSRFSGSGSGTDFTLTISSLQPEDFATYYCQQADSFPFTFGPGTKVDIKTTTPAPRPPTPAPTIASQPLSLRPEACRPAAGGAVHTRGLDFACDIYIWAPLAGTCGVLLLSLVITKRGRKKLLYIFKQPFMRPVQTTQEEDGCSCRFPEEEEGGCELRVKFSRSADAPAYQQGQNQLYNELNLGRREEYDVLDKRRGRDPEMGGKPRRKNPQEGLYNELQKDKMAEAYSEIGMKGERRRGKGHDGLYQGLSTATKDTYDALHMQALPPR
notes: also called anti-DLL3 CAR with 11H7 scFv, on primary T cells
Transduction efficiency [2]: 40.2%
Transduction efficiency [3]: 52.4%

B9: anti-DLL3 antibody 11H7 (antibody, V domains shown)
VH: QVQLQQWGAGLLKPSETLSLTCAVYGGSFSAYYWNWIRQPPGKGLEWIGEINHSGSTNYNPSLKSRVTISVDTSKNQFSLNLTSLTAADTAVYYCARGLDSSGWYPFDYWGQGTLVTVSS
VL: DIQMTQSPSSVSASVGDRVTITCRASQGISSWLAWYQQKPGKAPKLLIYAASSLQSGVPSRFSGSGSGTDFTLTISSLQPEDFATYYCQQADSFPFTFGPGTKVDIK
binding result [4]: binds

B10: anti-DLL3 antibody 16H7 (antibody, V domains shown)
VH: QVQLQQWGAGLLKPSETLSLTCAVFGGSFSGDYWSWIRQPPGKGLEWIGEINHSGITSFNPSLKSRVTISVDTSKNQFSLKLSSVTAADTAVYYCARGELGIPDNWGQGTLVTVSS
VL: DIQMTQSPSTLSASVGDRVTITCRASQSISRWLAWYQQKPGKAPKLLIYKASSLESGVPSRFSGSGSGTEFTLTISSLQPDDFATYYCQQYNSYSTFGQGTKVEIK
binding result [4]: binds

B11: anti-DLL3 antibody 2C3 (antibody, V domains shown)
VH: B10 VH with A9G, F25Y, F29S, D32N, G44R, I56T, F59Y, P103A, N105S
VL: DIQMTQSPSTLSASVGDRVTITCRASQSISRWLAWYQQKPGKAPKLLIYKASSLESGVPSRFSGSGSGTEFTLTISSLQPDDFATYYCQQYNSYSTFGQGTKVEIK
binding result [4]: binds

B12: anti-DLL3 antibody 4F9 (antibody, V domains shown)
VH: QVQLQQWGAGLLKPSETLSLTCAVYGGSFSGYYWTWIRQPPGKGLEWIGEITHSGSTNYNPSLKSRVSISVDTSKNQFSLKLSSVTAADTAVYYCARGEYGSGSRFDYWGQGTLVTVSS
VL: AIQMTQSPSSLSASVGDRVAITCRASQGIRDDLGWYQQKPGKAPKLLIYAASSLQSGVPSRFSGSGSDTDFTLTISSLQPEDFATYYCLQDYDYPLTFGGGTKVEIK
binding result [4]: binds

B13: anti-DLL3 antibody 4G9 (antibody, V domains shown)
VH: B12 VH with T35S
VL: B12 VL with I21L
binding result [4]: binds

B14: anti-DLL3 antibody 9H12-K (antibody, V domains shown)
VH: QVQLVQSGAEVKKPGASVKVSCKASGYTFTGYSIHWVRQAPGQGLEWMGWINPNSGGTFYAQKFQGRVTMTRDTSISTVYMELSRLRSDDTAVYYCARDGWGDYYYYGLDVWGQGTTVTVSL
VL: DIQMTQSPSSVSASVGDRVTITCRASQDISSWLAWYQQKPGKAPKLLIYTASSLQGGVPSRFSGSGSGTDFTLTISSLQPEDLATYSCQQANVFPYTFGQGTKLEIK
binding result [4]: binds
